Measurements reported in patent US20200171163A1 (Daiichi Sankyo, published 2020).

T1: human CDH6 (full-length, on cells) (human, UniProt P55285 54-790)
T1 construct: also called hCDH6; full-length hCDH6
T1 sequence: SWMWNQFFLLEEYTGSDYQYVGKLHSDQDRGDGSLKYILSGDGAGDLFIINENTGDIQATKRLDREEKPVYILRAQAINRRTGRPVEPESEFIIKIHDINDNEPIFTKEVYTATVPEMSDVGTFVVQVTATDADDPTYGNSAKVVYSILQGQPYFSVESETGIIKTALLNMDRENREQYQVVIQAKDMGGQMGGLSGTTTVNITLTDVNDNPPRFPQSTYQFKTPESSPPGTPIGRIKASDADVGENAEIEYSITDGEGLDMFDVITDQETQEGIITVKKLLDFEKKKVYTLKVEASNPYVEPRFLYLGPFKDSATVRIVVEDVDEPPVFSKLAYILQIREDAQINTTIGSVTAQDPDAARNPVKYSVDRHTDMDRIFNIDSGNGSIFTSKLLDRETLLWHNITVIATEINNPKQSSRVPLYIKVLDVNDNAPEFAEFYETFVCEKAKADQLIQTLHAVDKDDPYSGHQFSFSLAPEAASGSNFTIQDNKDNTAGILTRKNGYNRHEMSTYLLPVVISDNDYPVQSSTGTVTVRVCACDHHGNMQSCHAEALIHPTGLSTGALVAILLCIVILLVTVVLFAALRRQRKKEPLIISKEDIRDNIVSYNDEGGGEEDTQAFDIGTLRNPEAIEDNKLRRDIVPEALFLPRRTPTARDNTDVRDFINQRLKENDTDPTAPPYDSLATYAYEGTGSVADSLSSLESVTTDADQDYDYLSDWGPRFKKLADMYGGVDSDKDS

T2: EC3 deletion mutant of human CDH6 (human, UniProt P55285 54-790)
T2 construct: In p3×FLAG-CMV-9; also called EC3-deleted hCDH6
T2 sequence: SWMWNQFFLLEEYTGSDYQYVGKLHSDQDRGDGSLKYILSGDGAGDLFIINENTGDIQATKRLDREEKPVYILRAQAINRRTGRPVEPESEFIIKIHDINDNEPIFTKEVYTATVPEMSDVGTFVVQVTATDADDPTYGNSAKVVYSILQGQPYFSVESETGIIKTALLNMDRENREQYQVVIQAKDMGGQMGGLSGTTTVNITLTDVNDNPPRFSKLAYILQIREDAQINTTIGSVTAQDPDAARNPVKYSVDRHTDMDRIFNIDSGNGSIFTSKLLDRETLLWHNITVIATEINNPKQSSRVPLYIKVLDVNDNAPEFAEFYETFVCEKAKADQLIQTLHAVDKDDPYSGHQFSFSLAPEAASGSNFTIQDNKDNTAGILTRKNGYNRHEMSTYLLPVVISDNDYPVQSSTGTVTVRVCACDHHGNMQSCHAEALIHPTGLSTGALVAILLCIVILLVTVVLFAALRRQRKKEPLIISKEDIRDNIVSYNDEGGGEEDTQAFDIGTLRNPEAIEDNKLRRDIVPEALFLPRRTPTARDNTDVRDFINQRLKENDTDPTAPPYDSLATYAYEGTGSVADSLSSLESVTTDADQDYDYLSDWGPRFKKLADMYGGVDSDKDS


Each binder was assayed against T1, human CDH6 (full-length, on cells) (assay: competition flow cytometry on 786-O/hCDH6 cells; competitor: Alexa 488-labeled H01L02 at 5 nM; unlabeled antibody varied [lower panel]).
Experimental: Thereafter, the cells were suspended by the addition of labeled NOV0712 or labeled H01L02 (final concentration: 5 nM) and, further, the addition of each of the 4 humanized hG019 antibodies (clone Nos: H01L02, H02L02, H02L03 and H04L02), which had been prepared in Example 5)-5-3, or the anti-CDH6 antibody NOV0712, which had been prepared in Reference Example 1, or human IgG1 (Calbiochem) as a negative control (final concentration: as shown in the abscissa of FIG. 9). The cells were left standing at 4° C. for 1 hour. Thereafter, the cells were washed twice with PBS supplemented with 5% FBS, followed by detection using a flow cytometer (Canto II; BD Biosciences). The data was analyzed using FlowJo (Tree Star, Inc.). The abscissa depicts the final concentration of the added unlabeled antibody, and the ordinate depicts the amount of the antibody bound based on mean fluorescence intensity. When unlabeled NOV0712 is added to cells supplemented with labeled NOV0712, the amount of the labeled antibody bound is decreased by replacement with the unlabeled antibody in an addition concentration-dependent manner because they compete with each other for binding to the same epitope. […] Likewise, when each of the 4 unlabeled humanized hG019 antibodies is added to cells supplemented with labeled H01L02, the amount of the labeled antibody bound is decreased by replacement with the unlabeled antibody in an addition concentration-dependent manner because they compete with each other for binding to the same epitope.

IC50 (read off the curve) [nM]	Binder
~3	H02L02 antibody (antibody, human IgG1, kappa, V domains shown, Humanized IgG1/kappa (hH02 + hL02); also called humanized hG019 antibody H02L02) VH: EVQLVQSGAEVKKPGASVKVSCKASGYTFTRNFMHWVRQAPGQGLEWMGWIYPGDGETEYNQKFQGRVTITADRSTSTAYMELSSLRSEDTAVYFCARGVYGGFAGGYFDFWGQGTLVTVSS VL: DIQMTQSPSSLSASVGDRVTITCKASQNIYKNLAWYQQKPGKAPKLLIYDANTLQTGVPSRFSGSGSGSDFTLTISSLQPEDFATYFCQQYYSGWAFGQGTKVEIKR
~10	H04L02 antibody (antibody, human IgG1, kappa, V domains shown, Humanized IgG1/kappa (hH04 + hL02); also called humanized hG019 antibody H04L02) VH: QVQLVQSGAEVKKPGASVKVSCKASGYTFTRNFMHWIRQAPGQGLEWMGWIYPGDGETEYAQKFQGRVTLTADRSTSTAYMELSSLRSEDTAVYYCARGVYGGFAGGYFDFWGQGTLVTVSS VL: DIQMTQSPSSLSASVGDRVTITCKASQNIYKNLAWYQQKPGKAPKLLIYDANTLQTGVPSRFSGSGSGSDFTLTISSLQPEDFATYFCQQYYSGWAFGQGTKVEIKR
~10	H02L03 antibody (antibody, human IgG1, kappa, V domains shown, Humanized IgG1/kappa (hH02 + hL03); also called humanized hG019 antibody H02L03) VH: EVQLVQSGAEVKKPGASVKVSCKASGYTFTRNFMHWVRQAPGQGLEWMGWIYPGDGETEYNQKFQGRVTITADRSTSTAYMELSSLRSEDTAVYFCARGVYGGFAGGYFDFWGQGTLVTVSS VL: DIQMTQSPSSLSASVGDRVTITCKASQNIYKNLAWYQQKLGEGPKLLIYDANTLQTGVPSRFSGSGSGTDFTLTISSLQPEDFATYYCQQYYSGWAFGQGTKVEIKR
~5	H01L02 antibody (antibody, human IgG1, kappa, V domains shown, Humanized IgG1/kappa (hH01 + hL02); also called humanized hG019 antibody H01L02; labeled H01L02) VH: EVQLVQSGAEVKKPGASVKVSCKASGYTFTRNFMHWVRQAPGQGLEWMGWIYPGDGETEYAQKFQGRVTITADTSTSTAYMELSSLRSEDTAVYYCARGVYGGFAGGYFDFWGQGTLVTVSS VL: DIQMTQSPSSLSASVGDRVTITCKASQNIYKNLAWYQQKPGKAPKLLIYDANTLQTGVPSRFSGSGSGSDFTLTISSLQPEDFATYFCQQYYSGWAFGQGTKVEIKR

What follows are binders tested against T2, EC3 deletion mutant of human CDH6 (assay: flow cytometry; 293α cells transfected with EC3-deleted hCDH6 (open) vs untransfected control cells (shaded); anti-rat IgG-FITC).
Experimental: The cells were cultured overnight under conditions of 37° C. and 5% CO₂, and thereafter, a cell suspension was prepared. […] Thereafter, the cells were suspended by the addition of each of the 4 rat anti-CDH6 monoclonal antibodies (clone Nos: rG019, rG055, rG056 and rG061), which had been prepared in Example 1)-7, or rat IgG control (R&D Systems, Inc.) (final concentration: 20 nM). The cells were left standing at 4° C. for 1 hour. The cells were washed twice with PBS supplemented with 5% FBS, and then suspended by the addition of Anti-Rat IgG (whole molecule)-FITC antibody produced in rabbit (Sigma-Aldrich Co. LLC) that had been 50-fold diluted with PBS supplemented with 5% FBS. The cells were left standing at 4° C. for 1 hour. The cells were washed twice with PBS supplemented with 5% FBS, followed by detection using a flow cytometer (Canto II; BD Biosciences). The data was analyzed using FlowJo (Tree Star, Inc.). In the histograms of FIGS. 2-1 to 2-6, the abscissa depicts FITC fluorescence intensity indicating the amount of the antibody bound, and the ordinate depicts cell count. […] Fluorescence intensity is enhanced when the antibody binds to full-length hCDH6 or each EC domain deletion mutant on the surface of cells. The rat IgG control binds to none of the transfected cells.

Binder	binding result
rG055 antibody (antibody, V domains shown, Rat monoclonal purified from hybridoma; also called rat anti-CDH6 monoclonal antibody clone rG055) VH: EVQLQESGPGLVRPSQSLSLSCSVTDYSITSNYWGWIRRFPGNKMEWMGYITYSGYTSYNPSLQSRISITRDTSKNQFFLQLNSVTAEDTATYYCARSINHGGYSYVVDAWGPGASVTVSS VL: DVQMTHSPSYLAASPGESVSISCKTSKNISNYLVWYQQKPGEAYKLLIYSGSTLQSGTPSRFSGSGSGTDFTLTIRSLEPEDFGLYFCQQYYEKPFTFGSGTKLEIKR	no binding (tested: 20 nM (single concentration))
rG061 antibody (antibody, V domains shown, Rat monoclonal purified from hybridoma; also called rat anti-CDH6 monoclonal antibody clone rG061) VH: EVQLQESGPGLVKPSQSLSLTCSVTGYSITTYYWGWIRKFPGNKMEWMGYISYSGRTSYNPSLKSRMSITRDASKNQFFLQLNSVTTDDTATYYCARSPINHGGYWYFDFWGPGTMVTVSS VL: DVQMTQSPSYLAASPGESVSISCKATKSISNYLAWYQQKPGEAYKVLIYSGSTLQSGTPSRFSGSGSGTDFTLTIRSLEPEDFGLYSCQQYYEKPLTFGSGTKLEIKR	no binding (tested: 20 nM (single concentration))
rG019 antibody (antibody, V domains shown, Rat monoclonal purified from hybridoma; also called rat anti-CDH6 monoclonal antibody clone rG019) VH: QVQLQQSGAELVKPGSSVKISCKASGYTFTRNFMHWIKQQPGNGLEWIGWIYCGDGETEYNQKFNGKATLTADRSSSTAYMELSRLTSEDSAVYFCARGVYGGFAGGYFDFWGQGVMVTVSS VL: DIQMTQSPSLLSASVGDRVTLNCKASQNIYKNLAWYQQKLGEGPKLLIYDANTLQTGIPSRFSGSGSGSDFTLTISSLQPEDVATYFCQQYYSGWAFGGVTNLELKRA	no binding (tested: 20 nM (single concentration))
rG056 antibody (antibody, V domains shown, Rat monoclonal purified from hybridoma; also called rat anti-CDH6 monoclonal antibody clone rG056) VH: EVQLQESGPGLVKPSQSLSLTCSVTDYSITTYFWGWIRKFPGNKMEWMGYMSYRGGTSYNPSLKSRISITRDTSKNQFFLQLNSVTTEDTATYYCARCPNYGGHSLVFDYWGQGVMVTVSS VL: DVQMTQSPSSLAASPGESVSISCRATKSIGIYLAWYQQKPGKTFKLLIYSGSTLQSGTPSRFSGSGSGTDFTLTIRSLEPEDFGLYFCQQFYENPFTFGSGTKLEIRR	no binding (tested: 20 nM (single concentration))
